First the molecules themselves.
B1: Barstar, P11540 (parent)
chain: MKKAVINGEQIRSISDLHQTLKKELALPEYYGENLDALWDCLTGWVEYPLVLEWRQFEQSKQLTENGAESVLQVFREAKAEGCDITIILS

This data set covers variants of B1. The note with it: Bacillus amyloliquefaciens; pH 6.2; Thermal; DSC; Na-acetate 10 mM; NaCl 0.05 M; reversible: yes; structure 1BTA; whole UniProt chain shown.

In general, Tm refers to the temperature at which the thermal transition is half complete.

Take MKKAVINGEQIRSISDLHQTLKKELALPEYYGENLDALWDALTGWVEYPLVLEWRQFEQSKQLTENGAESVLQVFREAKAEGCDITIILS [C41A]: the Tm worked out at 74.1 °C, the “unfolding enthalpy (calorimetric)” value worked out at 51 kcal/mol and the “unfolding enthalpy (van 't Hoff)” value stood at 73 kcal/mol.

On to MKKAVINGEQIRSISDLHQTLKKELALPEYYGENLDALWDCLTGWVEYPLVLEWRQFEQSKQLTENGAESVLQVFREAKAEGADITIILS [C83A], for which the Tm was determined as 71.9 °C, the “unfolding enthalpy (calorimetric)” value came out at 49 kcal/mol and the “unfolding enthalpy (van 't Hoff)” value was 68 kcal/mol.

As for MKKAVINGEQIRSISDLHQTLKKELALPEYYGENLDALWDALTGWVEYPLVLEWRQFEQSKQLTENGAESVLQVFREAKAEGADITIILS [C41A C83A], the melting temperature (Tm) is 73.6 °C, the “unfolding enthalpy (calorimetric)” value was found to be 73 kcal/mol and the “unfolding enthalpy (van 't Hoff)” value is 71 kcal/mol.

These data come from FireProtDB (doi:10.1016/s0014-5793(99)00158-1).
